The values below come from paper PMC2637931.

For experiment [1], the target named is sTFR with 5-hydroxytryptophan substituted for Trp (UniProt P02786).
The target of experiment [2] is soluble portion of the transferrin receptor expressed as a recombinant entity (UniProt P02786).
Sequence of soluble portion of the transferrin receptor expressed as a recombinant entity (P02786 122-760): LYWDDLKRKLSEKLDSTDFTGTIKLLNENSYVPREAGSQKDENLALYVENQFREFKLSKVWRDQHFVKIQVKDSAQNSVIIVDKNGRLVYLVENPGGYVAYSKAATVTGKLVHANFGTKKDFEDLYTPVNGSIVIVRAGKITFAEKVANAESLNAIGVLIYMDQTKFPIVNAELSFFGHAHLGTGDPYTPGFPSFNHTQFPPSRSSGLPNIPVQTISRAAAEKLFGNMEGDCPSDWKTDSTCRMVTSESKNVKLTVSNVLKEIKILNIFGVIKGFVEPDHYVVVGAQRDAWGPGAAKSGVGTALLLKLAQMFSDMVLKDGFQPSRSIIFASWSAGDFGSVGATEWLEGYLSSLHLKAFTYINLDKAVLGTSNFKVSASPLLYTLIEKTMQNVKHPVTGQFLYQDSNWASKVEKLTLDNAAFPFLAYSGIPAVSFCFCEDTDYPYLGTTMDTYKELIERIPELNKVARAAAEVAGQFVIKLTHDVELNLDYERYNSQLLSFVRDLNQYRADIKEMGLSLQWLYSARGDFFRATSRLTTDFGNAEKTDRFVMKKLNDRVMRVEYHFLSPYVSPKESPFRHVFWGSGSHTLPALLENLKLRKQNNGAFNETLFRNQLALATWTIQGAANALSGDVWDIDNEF

In experiment [1], “FeC hTF with 5-hydroxytryptophan substituted for Trp (from UniProt P02787 20-698) (ligand)” showed a k (obsC1) of iron release from the complex at pH 5.6, excitation 280 nm of 18.1 min^-1; a k (obsC1) of iron release from the complex at pH 5.6, excitation 315 nm of 22.4 min^-1; a k (obsC2) of iron release from the complex at pH 5.6, excitation 280 nm of 4 min^-1; a k (obsC2) of iron release from the complex at pH 5.6, excitation 315 nm of 3.4 min^-1. In addition, in experiment [2], the k (obsC1) of iron release from the complex at pH 5.6, excitation 280 nm was 25.8 min^-1; the k (obsC1) of iron release from the complex at pH 5.6, excitation 315 nm amounted to 14.1 min^-1; the k (obsC2) of iron release from the complex at pH 5.6, excitation 280 nm amounted to 8.3 min^-1; the k (obsC2) of iron release from the complex at pH 5.6, excitation 315 nm was found to be 2.8 min^-1.
